# Patent US6572751B1, “Method and apparatus for continuous flow isoelectric focusing for purifying biological substances” (priority 1997, dated 2003)
# B1: α-amylase: enzyme purified from Bacillus subtilis strain A-200 culture supernatant (protein, UniProt P00691 42-659, looked up)
# Alpha-amylase: LTAPSIKSGTILHAWNWSFNTLKHNMKDIHDAGYTAIQTSPINQVKEGNQGDKSMSNWYWLYQPTSYQIGNRYLGTEQEFKEMCAAAEEYGIKVIVDAVINHTTSDYAAISNEVKSIPNWTHGNTQIKNWSDRWDVTQNSLLGLYDWNTQNTQVQSYLKRFLDRALNDGADGFRFDAAKHIELPDDGSYGSQFWPNITNTSAEFQYGEILQDSASRDAAYANYMDVTASNYGHSIRSALKNRNLGVSNISHYASDVSADKLVTWVESHDTYANDDEESTWMSDDDIRLGWAVIASRSGSTPLFFSRPEGGGNGVRFPGKSQIGDRGSALFEDQAITAVNRFHNVMAGQPEELSNPNGNNQIFMNQRGSHGVVLANAGSSSVSINTATKLPDGRYDNKAGAGSFQVNDGKLTGTINARSVAVLYPDDIAKAPHVFLENYKTGVTHSFNDQLTITLRADANTTKAVYQINNGPETAFKDGDQFTIGKGDPFGKTYTIMLKGTNSDGVTRTEKYSFVKRDPASAKTIGYQNPNHWSQVNAYIYKHDGSRVIELTGSWPGKPMTKNADGIYTLTLPADTDTTNAKVIFNNGSAQVPGQNQPGFDYVLNGLYNDSGLSGSLPH
# Assay: Amylolytic activity of purified α-amylase
# Details: middle outflow after second contifocusing run
molecule,measurement,value
B1,amylolytic activity,200 U/g
